The text below walks through data of patent US20250304636A1 (H LEE MOFFITT CANCER CENTER AND RESEARCH INSTITUTE, published 2025).

The test addresses T1, Syk (UniProt P43405 1-635, limits assumed).
T1 construct: also called Syk kinase; pcDNA3-Syk
Briefly: co-immunoprecipitation from co-transfected AD293 cells. The procedure:
AD293 cells (a cell line derived from HEK293 with improved cell adherence and plaque formation, Agilent) were washed with Dulbecco's PBS (DPBS), and resuspended in 2.0 μg/ml of anti-human TREM-1 antibody (R&D Systems) on ice for 30 min. After washing with DPBS, cells were incubated with 1.0 μg/ml of Affinipure rabbit anti-mouse IgG (H+L) Ab (Jackson Immunoresearch) at 37° C. for 10 min. Cells were then scraped off the plates and followed by centrifugation at 400 g for 10 minutes at 4° C. Cells were washed twice with cold 1×DPBS and lysed on ice for 30 min at 4° C. in 1 ml of lysis buffer (1% NP-40, 10 mM Tris, 150 mM NaCl, 0.5 mM phenylmethylsulfonyl fluoride, 10 mM iodoacetamide, 50 mM NaF, 1 mM ethylenediamenetetraacetic acid, 1 mM sodium orthovanadate, 0.25% sodium Deoxycholate, 10 μl Ala-Ala-Phe p-nitroanilide (SIGMA), 10 μl protease cocktail I (SIGMA cat #P2850) and 10 μl protease cocktail II (SIGMA cat #P5726). Cell lysates were centrifuged at 12,000 g at 4° C. for 15 minutes to remove nuclei and cell debris, after which the clarified lysate supernatant was isolated. The protein concentration of the soluble extracts was determined using the Bradford protein assay (Bio-Rad, Hercules, CA, USA) following manufacturer protocol. Western blots were blocked in PBST containing 4% BSA for 1 h and then incubated overnight at 4° C. in primary antibodies. […]

B1: wild-type DAP12 (12-kilodalton DNAX activating protein) (other)
chain: IALAVYFLGRLVPRGRGAAEAATRKQRITETESPYQELQGQRSDVYSDLNTQRPYYK
notes: Over-expressed from pcDNA3 in AD293 cells together with pcDNA3-Syk; co-immunoprecipitated from cell lysates; No signal peptide limits are stated; also called WT DAP12; WT
Take B1: the binding result was “no binding”.
